{"source": "paper PMC6635492", "about": "“Structural basis for the adsorption of a single-stranded RNA bacteriophage” (Nature Communications, 2019)", "proteins": {"B1": {"name": "F-pilin, subunit of the E. coli F-pilus encoded by the pOX38 plasmid (natural protein, E. coli (pOX38 plasmid), UniProt P04737 52-121, looked up)", "chain": "AGSSGQDLMASGNTTVKATFGKDSSVVKWVVLAEVLVGAVMYMMTKNVKFLAGFAIISVFIAVGMAVVGL", "notes": "F-pilin of the pOX38 (F) plasmid, mature pilin; its first five residues are printed as AGSSG; assembled as a five-start helical filament with one phospholipid per pilin; initial model PDB 5LER. numbers count on: the mature protein; Stood in the assay as the assembled filament (stoichiometric pilin-phospholipid complex); the number of subunits is not fixed; source: on the cells for cryo-ET"}}, "target": "the molecule itself", "assay": "cryo-EM structure; single-particle cryo-EM of MS2 virions incubated with purified F-pili for 30 min at 37 °C; grids tilted 0°, 15° or 30°; maps at 5.0 Å (whole complex), 6.2 Å (F-pilus/Mat, local mask) and 5.6 to 7.3 Å (three classes)", "data": [{"protein": "B1", "values": [{"measurement": "binding result", "value": "binds"}]}]}
